Laboratory results taken from EP4421166A1 (Max-Planck-Gesellschaft zur Förderung der Wissenschaften …, dated 2024).
One block for each binder: values may come before it.

Columns and labels:
[1] = target: T1, cpHaloΔ; assay: method not stated
T1 construct: Used as purified protein; also called original cpHaloΔ; first partial effector

[2] = target: T2, cpHaloΔ2; assay: EC50 of the split-HaloTag labeling reaction (fluorescence polarization)
T2 construct: also called linker04/E20S/N119H/V184E/V197K; improved cpHaloΔ variant
T2 sequence (chain, as listed by the source mutant): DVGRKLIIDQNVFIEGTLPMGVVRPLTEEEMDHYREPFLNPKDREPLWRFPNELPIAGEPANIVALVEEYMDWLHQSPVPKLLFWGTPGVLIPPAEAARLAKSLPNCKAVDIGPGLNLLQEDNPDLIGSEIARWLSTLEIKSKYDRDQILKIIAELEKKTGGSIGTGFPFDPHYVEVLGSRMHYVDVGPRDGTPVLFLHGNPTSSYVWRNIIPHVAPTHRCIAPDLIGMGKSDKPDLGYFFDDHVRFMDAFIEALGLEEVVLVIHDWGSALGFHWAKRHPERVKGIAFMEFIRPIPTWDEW

[3] = target: LKPG-cpHaloΔ2-PDYE; assay: cell-based or functional assay
LKPG-cpHaloΔ2-PDYE, sequence (chain, as listed by the source mutant): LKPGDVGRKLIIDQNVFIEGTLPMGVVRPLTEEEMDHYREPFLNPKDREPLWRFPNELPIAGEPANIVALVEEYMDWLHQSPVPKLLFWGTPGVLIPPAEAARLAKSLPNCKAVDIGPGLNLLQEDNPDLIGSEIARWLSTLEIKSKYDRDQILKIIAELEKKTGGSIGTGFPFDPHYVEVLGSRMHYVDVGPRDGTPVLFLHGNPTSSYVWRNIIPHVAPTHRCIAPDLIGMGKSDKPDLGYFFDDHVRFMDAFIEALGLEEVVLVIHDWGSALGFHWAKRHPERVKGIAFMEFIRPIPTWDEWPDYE

T1 sequence (chain, as listed by the source mutant): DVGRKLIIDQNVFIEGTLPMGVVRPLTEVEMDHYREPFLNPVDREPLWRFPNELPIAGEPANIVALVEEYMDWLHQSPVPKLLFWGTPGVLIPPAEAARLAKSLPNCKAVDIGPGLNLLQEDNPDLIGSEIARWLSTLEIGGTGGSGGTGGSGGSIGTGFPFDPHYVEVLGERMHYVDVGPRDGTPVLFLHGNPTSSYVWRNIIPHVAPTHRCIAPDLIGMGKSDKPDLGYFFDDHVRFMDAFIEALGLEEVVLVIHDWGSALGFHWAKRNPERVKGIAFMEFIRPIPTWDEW

Kd [1]: 4600 µM
B1: Hpep1 (peptide)
peptide: ARETFQAFRT
notes: Residues 145-154 of HaloTag; also called original Halo-Peptide; original Hpep (10mer)

binding result [2]: binds
EC50 of the labeling reaction [3]: 0.000382 µM
fold lower EC50 than cpHaloΔ2 [3]: 6.6 fold
Binder: RGWSWREMFRLFRT [Hpep RGWSWREMFRLFRT]

binding result [2]: binds
Binder: RQWSWREMFRLFRT [Hpep RQWSWREMFRLFRT]

binding result [2]: binds
Binder: RMWTWREMFRLFRT [Hpep RMWTWREMFRLFRT]
